One data set has as its system specific IgG antibody. More on the design: species or system rabbits. The following applies: rabbit, in vivo.
The next data set concerns mice. The following applies: mouse, in vivo, ip.
For data set [1] the following is noted: rabbit, in vivo, iv.

With Tetanus Toxoid, the Immunogenicity result with specific IgG antibody was “Immunogenic”. For the same substance, in the data set with mice, the “Toxicity (class)” value was “Nontoxic (key: Nontoxic: a minimum of 50 ug of antigen administered intraperitoneally resulted in no mortality)”. Further, the “Pyrogenicity (highest dose with rise in body temperature ≤ +0.3° C.)” value in data set [1] was 50 ug/ml/kg body weight.

These data come from US4771127A (priority 1985, dated 1988).
